Laboratory results reported in patent US12018066 (TRIAD NATIONAL SECURITY, dated 2024).
Residue numbers refer to the chain shown, from its start. Values joined by “and” are separate entries in the source; they are usually repeats but may differ in a detail not shown here. Equal values may be shown once.

B1: G07 IgG1 (antibody, V domains shown)
VH: QVQLVQSGAEVKKPGESLKISCKGSGYSFTSYWIGWVRQMPGKGLEWMGIIYPGDSDIRYSPSFQGQVTISADKSFSSAYLQWSSLKASDTAMYYCARLGATGAFDIWGQGTTVTVSS
VL: QSVLIQPPSASGTPGQRVTISCSGSNSNFGSNSVSWYQQRPGTAPKLLIEGNNQRPSGVPERFSGSKSGTSASLAISGLQSEDEAEYSCASWDDSLNAFVFGPGTKLTVL
B2: S01 minibody (scFv-Fc) (Fc fusion)
chain: EIVMTQSPSSLSASVGDSVTITCQASQDISNYLNWYQQKPGKAPKLLIYDASNLETGVPSRFSGGGSGTDFTLTITSLQPEDIATYYCQQYDNFPPTFGPGTKVDIKSGGSTITSYNVYYTKLSSSDTQVQLVESGGGLVKPGGSLRLSCAASGFTVGSNYMSWVRQAPGKGLEWVSVIYSGGSTYYADSVKGRFTISRDNSKNTLYLQMNSLRAEDTAVYYCARGSSGAWYFDLWGRGTLVTVSS
notes: also called 501
B3: F07 minibody (scFv-Fc) (Fc fusion)
chain: SYVLTQPPSVSVAPGQTARITCGGNNIGSKSVHWYQQKPGQAPVLVVYDDSDRPSGIPERFSGSNSGNTATLIISRVEAGDEADYYCQVWDSSSVHYVFGTGTKLTVLSGGSTITSYNVYYTKLSSSGTQVQLVQSGAEVKKPGSSVRVSCKVSGYTFTGYYMHWVRQAPGQGLEWMGIINPSGGSTSYAQKFQGRVTMTRDTSTSTVYMELSSLRSEDTAVYYCARVRVGASDAFDIWGQGTMVTVSS
B4: B04 IgG1 (antibody, V domains shown)
VH: QVQLVESGAEVKKPGASVKVSCKASGYTFTRYYMHWVRQAPGQGLEWMGIINPSGGTTSYAQKFQGRVTMTRDTSTSTVYMELSSLRSEDTAVYYCARSFGELTSFDYWGQGTLVTVSS
VL: SYVLTQPPSVSVAPGKTARITCGGNNIGIRSVHWYQQKPGQAPVLVIYYDSDRPSGIPERFSGSKSGNTATLTISRVEAGDEADYYCQVWDSSSDHPVFGGGTKLTVL
B5: E08 IgG1 (antibody, V domains shown)
VH: QVQLVQSGAEVKKPGSSVKVSCKASGGTFSSYAISWVRQAPGQGLEWMGGIIPIFGTANYAQKFQGRVTITADESTSTAYMELSSLRSEDTAVYYCARASGRWLQFWHYYGMDVWGQGTTVTVSS
VL: B4 VL with I29W, R30K, I47V, Y49D, K65N, H96L, P97V
B6: H01 IgG1 (antibody, V domains shown)
VH: QVTLKESGPVLVKPTETLTLTCTVSGFSLSNARMGVSWIRQPPGKALEWLAHIFSNGEKSYSTSLKSRLTISKDTSKSQVVLTMTNMDPVDTATYYCARTLDYYDSSGYLVGGAFDIWGQGTMVTVSS
VL: QPGLTQPPSVSLAPGQTARITCGGNNIGSKSVHWYQQKPGQAPVLVVYDDSDRPSGIPERFSGSNAGNTATLTISRVEAGDEADYYCQVWDSRSDQYVFGTRTKLTVL
notes: also called H1
B7: E01 minibody (scFv-Fc) (Fc fusion)
chain: SYELTQPPSVSVAPGETARITCGGDNIGRRHVHWYQQKPGQAPVLVIYDDSDRPSGIPDRFSGSNSGNTATLTIGRVEAGDEADYYCQVWGSSNDPHVFGTGTKLTVLSGGSTITSNNVYYTKLSSSGTQVQLQQWGAGLLKPSETLSLKCAVYGGSFSGYYWGWIRQSTGKGLEWIGEINRSGSTNYNPSLKSRVTISVDTSKNQFSLKLSSVTAADTAVYYCARGGARYYYGSGSYRSTPRPYYFDYWGQGTLVTVSS
notes: also called E1
B8: E01 IgG1 (antibody, V domains shown)
VH: QVQLQQWGAGLLKPSETLSLKCAVYGGSFSGYYWGWIRQSTGKGLEWIGEINRSGSTNYNPSLKSRVTISVDTSKNQFSLKLSSVTAADTAVYYCARGGARYYYGSGSYRSTPRPYYFDYWGQGTLVTVSS
VL: SYELTQPPSVSVAPGETARITCGGDNIGRRHVHWYQQKPGQAPVLVIYDDSDRPSGIPDRFSGSNSGNTATLTIGRVEAGDEADYYCQVWGSSNDPHVFGTGTKLTVL
notes: also called E1

What follows are binders tested against T1, SARS-CoV-2 spike protein receptor binding domain (RBD2) (SARS-CoV-2, UniProt P0DTC2 319-537) (assay: SPR).

Binder	Kd [nM]
B1	320
B2	22700
B3	61.5
B4	210
B5	27
B6	800
B7	21.5
B8	90

Each binder was assayed against SARS-CoV spike protein receptor binding domain (RBD1) (SARS-CoV, UniProt P59594 306-527) (assay: ELISA, minibodies (FIG. 6)).

Binder	binding result
B2	no binding
B3	no binding
B7	no binding

What follows are binders tested against T1, SARS-CoV-2 spike protein receptor … (assay: SPR sandwich binning, ligand B04).

Binder	normalized analyte binding to RBD2 held by the immobilized ligand
B1	-0.03
B4	-0.11
B5	2.12
B6	0.77
B8	-0.09

What follows are binders tested against T1, SARS-CoV-2 spike protein receptor … (assay: not given).

Binder	Kd [nM]
B5	26
B6	721

The binders below were run against SARS-CoV-2 spike protein on whole SARS-CoV-2 virus (SARS-CoV-2, UniProt P0DTC2 14-1273) (assay: cell-based or functional assay).

Binder	NT50 (nM), half neutralization titer [nM]	Nmax (%), neutralization maximum [%]
B4	56.7	53.3
B5	52.9	70.4
B6	69.6	87.7
B8	6.4	104

Each binder was assayed against T1, SARS-CoV-2 spike protein receptor … (assay: SPR, immobilized antibody, RBD injected, 1:1 fit).

Binder	Kd [nM]
B1	320
B3	61.5
B4	210
B5	27
B6	800
B7	21.5
B8	90

Molecular target: T1, SARS-CoV-2 spike protein receptor …
Assay: not given
Remark: another data set of the same source

Binder	Kd [nM]
B4	208

Each binder was assayed against T1, SARS-CoV-2 spike protein receptor … (assay: SPR sandwich binning, ligand S01).

Binder	normalized analyte binding to RBD2 held by the immobilized ligand
B4	-0.59
B5	1.85
B6	-0.11
B8	0.03

What follows are binders tested against T1, SARS-CoV-2 spike protein receptor … (assay: SPR sandwich binning, ligand E01).

Binder	normalized analyte binding to RBD2 held by the immobilized ligand
B1	1.57
B4	-0.15
B5	2.15
B6	0.41
B8	-0.07

These binders were tested against T1, SARS-CoV-2 spike protein receptor … (assay: SPR sandwich binning, ligand H05).

Binder	normalized analyte binding to RBD2 held by the immobilized ligand
B1	1.03
B4	1.87
B5	-0.11
B6	-0.05
B8	2.18

The binders below were run against T1, SARS-CoV-2 spike protein receptor … (assay: SPR sandwich binning, ligand CR3022).

Binder	normalized analyte binding to RBD2 held by the immobilized ligand
B1	1.56
B4	2.22
B5	-0.08
B6	-0.05
B8	2.39

What follows are binders tested against T1, SARS-CoV-2 spike protein receptor … (assay: SPR sandwich binning, ligand G07).

Binder	normalized analyte binding to RBD2 held by the immobilized ligand
B1	-0.05
B4	-0.07
B5	2.62
B6	1.28
B8	2.43

These binders were tested against T2, human ACE2 receptor on HEK cells (Human ACE2 293 cell line) (human, UniProt Q9BYF1 18-805) (assay: fluorescence microscopy, PE-labelled IgG on HEK-ACE2 cells without RBD2-sfGFP).
T2 construct: whole, on cells; also called HEK-ACE2; ACE2 293 cells
T2 sequence (Q9BYF1 18-805): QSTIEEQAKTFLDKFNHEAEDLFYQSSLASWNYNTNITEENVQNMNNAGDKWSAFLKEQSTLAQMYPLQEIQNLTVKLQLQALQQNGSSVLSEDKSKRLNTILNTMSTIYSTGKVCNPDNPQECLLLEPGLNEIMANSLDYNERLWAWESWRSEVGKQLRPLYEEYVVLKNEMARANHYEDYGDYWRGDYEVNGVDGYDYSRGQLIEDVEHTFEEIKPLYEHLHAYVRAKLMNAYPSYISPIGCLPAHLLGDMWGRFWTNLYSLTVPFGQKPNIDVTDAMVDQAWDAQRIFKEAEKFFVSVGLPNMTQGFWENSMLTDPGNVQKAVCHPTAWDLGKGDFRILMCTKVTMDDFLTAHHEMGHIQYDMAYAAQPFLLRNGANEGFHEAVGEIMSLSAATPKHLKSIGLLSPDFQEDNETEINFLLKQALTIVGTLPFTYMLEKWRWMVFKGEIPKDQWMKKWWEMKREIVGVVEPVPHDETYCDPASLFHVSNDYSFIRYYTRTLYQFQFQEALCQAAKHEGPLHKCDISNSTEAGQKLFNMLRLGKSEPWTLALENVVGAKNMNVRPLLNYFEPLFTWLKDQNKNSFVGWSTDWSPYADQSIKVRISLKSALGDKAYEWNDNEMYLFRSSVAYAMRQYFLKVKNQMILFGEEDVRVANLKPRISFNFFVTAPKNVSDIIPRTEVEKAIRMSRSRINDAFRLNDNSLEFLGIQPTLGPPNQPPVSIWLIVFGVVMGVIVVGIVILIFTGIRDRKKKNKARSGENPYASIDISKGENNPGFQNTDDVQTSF

Binder	binding result
B1	no binding (tested: 1 ug/mL)
B4	no binding (tested: 1 ug/mL)

Each binder was assayed against T1, SARS-CoV-2 spike protein receptor … (assay: SPR sandwich binning, ligand NN54).

Binder	normalized analyte binding to RBD2 held by the immobilized ligand
B1	1.73
B4	2.5
B8	2.78

What follows are binders tested against T1, SARS-CoV-2 spike protein receptor … (assay: SPR sandwich binning, ligand H01).

Binder	normalized analyte binding to RBD2 held by the immobilized ligand
B1	0.94
B4	0.71
B5	0.13
B6	-0.03
B8	2.35

The binders below were run against T1, SARS-CoV-2 spike protein receptor … (assay: SPR sandwich binning, ligand E08).

Binder	normalized analyte binding to RBD2 held by the immobilized ligand
B1	1.86
B4	2.24
B5	-0.09
B6	-0.03
B8	2.33

What follows are binders tested against T1, SARS-CoV-2 spike protein receptor … (assay: SPR sandwich binning, ligand F07).

Binder	normalized analyte binding to RBD2 held by the immobilized ligand
B1	0.08
B4	0.05
B5	1.32
B6	0.03
B8	0.62

These binders were tested against T1, SARS-CoV-2 spike protein receptor … (assay: SPR sandwich binning, ligand Anti-His).

Binder	normalized analyte binding to RBD2 held by the immobilized ligand
B1	0.92
B4	1.68
B5	1.81
B6	1.75
B8	2

Molecular target: T1, SARS-CoV-2 spike protein receptor …
Assay: not given
Remark: another data set of the same source

Binder	Kd [nM]
B1	246
B8	90

What follows are binders tested against T1, SARS-CoV-2 spike protein receptor … (assay: SPR, IgG).

Binder	Kd
B1	2000 nM
B4	100 nM and 300 nM
B8	48 nM
